Consider five molecules from paper PMC2728291 (Journal of molecular biology, 2009).

The labels stand for the following.
B1: BLIP Asp49Ser mutant (natural protein)
chain: AGVMTGAKFTQIQFGMTRQQVLDIAGAENCETGGSFGDSIHCRGHAAGSYYAYATFGFTSAAADAKVDSKSQEKLLAPSAPTLTLAKFNQVTVGMTRAQVLATVGQGSCTTWSEYYPAYPSTAGVTLSLSCFDVDGYSSTGFYRGSAHLWFTDGVLQGKRQWDLV
B2: BLIP Glu73Tyr mutant (natural protein)
chain: AGVMTGAKFTQIQFGMTRQQVLDIAGAENCETGGSFGDSIHCRGHAAGDYYAYATFGFTSAAADAKVDSKSQYKLLAPSAPTLTLAKFNQVTVGMTRAQVLATVGQGSCTTWSEYYPAYPSTAGVTLSLSCFDVDGYSSTGFYRGSAHLWFTDGVLQGKRQWDLV
B3: BLIP Trp112Arg mutant (natural protein)
chain: AGVMTGAKFTQIQFGMTRQQVLDIAGAENCETGGSFGDSIHCRGHAAGDYYAYATFGFTSAAADAKVDSKSQEKLLAPSAPTLTLAKFNQVTVGMTRAQVLATVGQGSCTTRSEYYPAYPSTAGVTLSLSCFDVDGYSSTGFYRGSAHLWFTDGVLQGKRQWDLV
B4: BLIP Phe142Gly mutant (natural protein)
chain: AGVMTGAKFTQIQFGMTRQQVLDIAGAENCETGGSFGDSIHCRGHAAGDYYAYATFGFTSAAADAKVDSKSQEKLLAPSAPTLTLAKFNQVTVGMTRAQVLATVGQGSCTTWSEYYPAYPSTAGVTLSLSCFDVDGYSSTGGYRGSAHLWFTDGVLQGKRQWDLV
B5: BLIP Glu31Gln mutant (natural protein)
chain: AGVMTGAKFTQIQFGMTRQQVLDIAGAENCQTGGSFGDSIHCRGHAAGDYYAYATFGFTSAAADAKVDSKSQEKLLAPSAPTLTLAKFNQVTVGMTRAQVLATVGQGSCTTWSEYYPAYPSTAGVTLSLSCFDVDGYSSTGFYRGSAHLWFTDGVLQGKRQWDLV

TEM-1 β-lactamase, sequence (P62593 24-286): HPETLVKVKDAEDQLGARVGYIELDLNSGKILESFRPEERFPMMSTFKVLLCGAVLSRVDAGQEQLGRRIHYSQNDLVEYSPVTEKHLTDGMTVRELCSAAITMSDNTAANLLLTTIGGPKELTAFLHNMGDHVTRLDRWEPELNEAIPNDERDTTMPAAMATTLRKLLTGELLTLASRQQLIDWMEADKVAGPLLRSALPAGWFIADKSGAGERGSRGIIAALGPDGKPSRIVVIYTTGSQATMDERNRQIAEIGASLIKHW

This test addresses TEM-1 β-lactamase (UniProt P62593 24-286). Nature of the test: enzyme inhibition assay.
For the molecule B1, the affinity, expressed as Ki, was 16 nM. This lies in the double-digit nanomolar range. Take B2: the affinity, expressed as Ki, was 3.7 nM. In the case of B3, the Ki (in general, the equilibrium dissociation constant of an inhibitor or competing ligand from its target) came to 3.9 nM.

B4 returned a Ki of 12 nM. This Ki is about 3.1-fold higher than that of the molecule before.

B5 gave a Ki of 1.4 nM.
